Test results from patent US20220348635A1, “COMPOSITIONS AND METHODS FOR NEUROLOGICAL DISEASES” (Coda Biotherapeutics, Inc., priority 2019, published 2022).

Columns and labels:
Assay type in all cases: cell-based
[1] = YFP quench plate reader assay, response to acetylcholine; conditions: LX293T YFP reporter cells
Summary of the method: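 Transiently transfected LX293T YFP-reporter cells; 30 min 37° C in 1×ECS (pH 7.2). Baseline 17 sec, ligand added (2× stock in ECS-NaI), fluorescence every 1.3 sec over 2 min. Dose-dependent % quench; […].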

[2] = High throughput electrophysiology in HEK293T cells, RG-3487
Procedure: To confirm the EC50s determined by plate reader as well as develop a better understanding of maximum current flow, the engineered receptors were subjected to high throughput electrophysiology system, as described below. For HEK293T studies, cDNAs encoding ion channels were cloned into pcDNA3.1 using standard recombination techniques. HEK293T cells from Clontech (Lenti-X™ 293T Cell Line) were cultured in DMEM supplemented with 10% FBS and 1% Pen/Strep to 40-50% confluence using standard cell culture protocols, transfected with ion channel plasmids at a concentration of 18 μg per 15 cm dish using Fugene 6, and grown for an additional 24 hours. Cells were then assayed on a electrophysiological system (IonFluxHT and/or Mercury, Fluxion Biosciences) in which dose-response relationships may be assessed through a microfluidics-based platform for establishing whole cell configurations. […] Data were then analyzed off-line using custom Python scripts to convert data to .csv format, re-plot traces, and apply QC measurements to reject unstable recordings (i.e. thresholding based on access resistance and/or standard deviation in baseline, as well as artifact rejection). Peak currents were then calculated and population data were fit using a 4-parameter logistic equation as described by the Hill Equation. […]

[3] = Manual patch clamp, HEK cell line, Facinicline/RG3487; conditions: HEK293 cells and cultured rat DRG sensory neurons
Procedure: FIG. 2A-FIG. 2B show the concentration-response curves of CR-11 (Chemogenic receptor-11, an engineered receptor comprising an amino acid sequence having the amino acid substitutions of Y115D and L131Q in SEQ ID NO: 33) expressed in HEK 293 cells to acetylcholine as well as to non-native ligands RG-3487 (SA-2, Synthetic Agonist-2). The responses were evaluated using manual patch clamp electrophysiology. Currents were normalized to unity for the maximal response. The continuous line through the data points is the best fit obtained with the Hill equation, and EC50s for each ligand are estimated from the concentration-response curves.
Using whole cell manual patch clamp electrophysiology in HEK293 cells and rat DRG neurons, the EC50 of the various engineered receptors disclosed herein to Ach and non-native ligands was measured. The rheobase shift was also measured in rat DRG neurons, which reflects the efficacy of the receptors. To calculate the rheobase, first, the amount of current that can produce an action potential was determined. Then the ligand was added, followed by a step wise increase in the current injected up to 700 pA. […] The EC50 was calculated using the Hill equation with peak current measurements from escalating doses of ligand.

[4] = Evoked action potentials in transduced rat DRG neurons, acetylcholine; conditions: Acetylcholine at 3.0 mM, n=4
Procedure: Acetylcholine at 3.0 mM had no effect on evoked action potentials in transduced neurons (n=4) (FIG. 4B).

B1: Y115D, L131Q in SEQ ID NO: 33: CR-11 (Chemogenic receptor-11): SEQ ID NO: 33 with substitutions Y115D and L131Q (protein)
chain: MRCSPGGVWLALAASLLHVSLQGEFQRKLYKELVKNYNPLERPVANDSQPLTVYFSLSLLQIMDVDEKNQVLTTNIWLQMSWTDHYLQWNVSEYPGVKTVRFPDGQIWKPDILLDNSADERFDATFHTNVQVNSSGHCQYLPPGIFKSSCPMDLKNFPMDVQTCKLKFGSWSYGGWSLDLQMQEADISGYIPNGEWDLVGIPGKRSERFYECCKEPYPDVTFTVTMRRRMGYYLIQMYIPSLLIVILSWISFWINMDAAPARVGLGITTVLTMTTQSSGSRASLPKVSYVKAIDIWMAVCLLFVFSALLEYAAVNFVSRQHKELLRFRRKRRHHKSPMLNLFQEDEAGEGRFNFSAYGMGPACLQAKDGISVKGANNSNTTNPPPAPSKSPEEMRKLFIQRAKKIDKISRIGFPMAFLIFNMFYWIIYKIVRREDVHNQ
modifications: synthetic sequence of chimeric LGIC
In the case of B1, the “percent quench of YFP fluorescence, 10 uM ach” value ([1]; 10 uM acetylcholine) is reported as 9.47%, the “percent quench of YFP fluorescence, 100 uM ach” value ([1]; 100 uM acetylcholine) is reported as 6.12% and the “percent quench of YFP fluorescence, 1 mM ach” value ([1]; 1 mM acetylcholine) is reported as −1.56%. For the same molecule, the “percent quench of YFP fluorescence, 3 mM ach” value ([1]; 3 mM acetylcholine) was 17.57%, the “fold increased potency to RG-3487 compared to wild type receptor” value [2] was “over 10 fold” and the “sensitivity to RG-3487 compared to wildtype nAchRa7 receptor” value [3] was “more sensitive”. The “effect on evoked action potentials” value [4] was “no effect”.
